Measured values reported in the DeepSol protein solubility set.

Experiment: soluble on expression in E. coli; label from the status in PepcDB or PDB records

Soluble on expression in E. coli, soluble:
MSLTLTLKETLLASPGVLFLDDITIEKVESEKNLMILLPGLEYLVTRDLLRTKFPEYDFTGPENVRITVEGYSSLKNAVFEEIGKKAEAKDFEAFVVKTFGTLPEKFEPQTIRVTKISKNLFSVFLRFPDTYVTLNMLLRKERNVVVLKRNINVGDVIKEEDVRLEKRNVFEIYGEPFFDVSEVVGKISRRYLKEGTVLTADMVKDPPDVVKGQVVPAYVDMGSIKVTTFVEVLENGYLGETVRAMNVESRKYVFGRVERGPVLRILEVVEGHHHHHH, MSLTNHEQVLTDYLAAFIEELVQAGVKEAIISPGSRSTPLALMMAEHPILKIYVDVDERSAGFFALGLAKASKRPVVLLCTSGTAAANYFPAVAEANLSQIPLIVLTADRPHELRNVGAPQAMDQLHLYGSHVKDFTDMALPENSEEMLRYAKWHGSRAVDIAMKTPRGPVHLNFPLREPLVPILEPSPFTATGKKHHHVHIYYTHEVLDDSSIQKMVTECTGKKGVFVVGPIDKKELEQPMVDLAKKLGWPILADPLSGLRSYGALDEVVIDQYDAFLKEAEIIDKLTPEVVIRFGSMPVSKPLKNWLEQLSDIRFYVVDPGAAWKDPIKAVTDMIHCDERFLLDIMQQNMPDDAKDAAWLNGWTSYNKVAREIVLAEMANTTILEEGKIVAELRRLLPDKAGLFIGNSMPIRDVDTYFSQIDKKIKMLANRGANGIDGVVSSALGASVVFQPMFLLIGDLSFYHDMNGLLMAKKYKMNLTIVIVNNDGGGIFSFLPQANEPKYFESLFGTSTELDFRFAAAFYDADYHEAKSVDELEEAIDKASYHKGLDIIEVKTNRHENKANHQALWVKIADALKALDEGHHHHHH, MSLTNKHPSLFSPFMLTEKIKLRNRIVMAPMTTWSANPDGTISEQELEFYKRRSQNVGLVITGCTYVTPSGIGFTHEFAAYDDRFINSLEKLAAAAKSGGAPAILQIFHAGNKAIPELVPNNDVISASASSVKSGDFMKRVVQSREMTENEIQETIRAFGDVTKRAIKAGFDGIELHGAHGFLLQNFFSPLFNQRNDRWGGDLEGRMRFPLAVLQEVKNVVYEYATKPFAIGYRISPEESATGGLRIEDTYKLLDRLISSGISYIHTSLVSINDSYPVESPNGPRTIELILNHIAGRVPVIAAGKIRTPSQAQEAISTGLPLVAIGKGLVINPEWVTLAESGRGHEIQTTLNPQLVPELTIPDKLWDQIQASKGEGHHHHHH, MSLTPYEPFRHLDQMRREFDRFFPDFPIDLPNRHLTLSPKMDVHETDHEVILECDIPGLESKEDLQIDVEPRSVRIEGRIKRSKEVHDERFYRREREIGHFRRVVPLPAEVAEDDIRAAYRNGVLEVRMRKRLDDRRRTIDVEFHLEHHHHHH, MSLTRIVLPGGAGLVGQNLVARLKARGYTNLVVLDKHEANLDVLRSVHPDITAVFADLAEPGDWARHFEGADVVVMLQAQIGAPTREPFVRNNIDSTRCVLEVIKQHAIPYTVHISSSVVKSVGEDWYTETKREQEAIVLASGIGCVVLRPTLMFGWFDRKHLGWLSRFMQRVPVFPIPGSGRYMRQPLYVGDFCNVIISCIDSRIQGQTFDITGLERIDYIDIIRQIKRVTRARCAIVRIPYGLFHILLKVYALFSKNPPFTADQLKALTAGDEFDVIDWERIFAIRATPFAQAMEETFNDPTYSHIALEEGHHHHHH, MSLTTAHNIDLPTVLAERLTTAHPDVLRELLATFIHTLMGAEADALCGAGYGERSTERTNSRNGYRHRQFDTRAGSLDLAIPKLRHGSYFPDWLLERRKRAERALTTVVATCYLLGVSTRRMDKLVETLGITSLSKSQVSVMAKELDAAVEAFRTRPLDAGPYTFVAADALVLKVREGGRVVNVHALIAVGVNAEGHREILGIDVSTAEDGAGWLTFWRSLTARGLSGVKLVTSDAHAGLVAAIGATLPGAAWQRCRTHYTTNLMAVTPKSSWPWVRTLLHSVFDQPDAESVAAQYDRIIEALADKLPKVADHLEEARADLLAFTAFPKQIWRQIWSNNPLSVNRPSGDTVQAAAEGHHHHHH, MSLTTALAPGAADALLFDLGRVVIDYDLRRTLKAWAVELGSDPHALMAKLAQNDTFHRYETGHVTDAEFFAAVRTALGLTLTDAQLREGWNAIFIGEMPGIAPLLDRAAKQLPLYALSNTNDSHIAHFSEHYAELLVHFRELFLSSRIGMRKPNGETYDFVVKAIGIAPQRIVFFDDLAENVEAARERGLYAVQVHSSDDVARTLDQLGLEGHHHHHH, MSLTTIRVFDTTLRDGEQMPGVSLPLEYKIRIAKQLDKLGVDVIEAGFPSATKGEFESVKEISSLSLNAEICGLARIVKEDIDAAINANVDMVHIFVPTSRIQIEHTVKMSKEEIIEKSVECVEYIKSHGVKCMFSAMDATRTEVEYLKQIFKAVENAKVDIVNVPDTVGVATPFKFYELIKQLREHLKVPIDVHCHNDFGLAVANTYAAVMAGANEVQVTVNGIGERAGNADLAQVVMILHAIEGIKTNIKTEHLFETSKLVERLTGVKMPPNHPIVGENAFSHESGIHAHGVLKEYSEGHHHHHH, MSLTTLVNLTPTKEQRKYQEDELIAFLDLQMNTFTANSENNDEAPSLLKKETSFNTDIWIENLFKFGFKKVILTAKLNNGICLWQSNCSKVNINTFSLENNYDDLVKKVSKSCKKFGLKFGIHLTLKDYLTLNLTPEEYDNYYTSQLKELMTNYSQISEVIMDMTSLDEYYDSLDFERYFKVVKEINPKCMISSPIGPDVRWTYYSDIESSKNYFYSSINLDLLKEDFNNEEIRKGNIYGDTWIVGESIYSLSDCLNHNKDSLSNLKHVYNNSLGRNTNLVLVLSPNTDGLLNHNELSLLSDFSKYIKETFSNNLIKGSSILATNSSSSDSYNLIDDYKKSYWIANENAVNPYIEIDFKTITEFNILEIREWIAEGQNVEEFKVYAYNNGWFELYNGTSIGYRHIAKLNNIKTDKIKISFTKYKNPPMINHIGAYLGEGHHHHHH, MSLTTMVPTVMNTPTRIEAGRQKFLIFDAPSQENLPAYIEEMRAYEVTDLVRTCERTYDDKTVLASGIRPHELIFPDGEAPPDDVIDEWLTLCNAVSQQRGAIAIHCVAGLGRAPVLVAIALIEKGMDPMDAIMFIRERRKGAINRRQLQFLKGYKRRSNYKEGHHHHHH, MSLTTVRMTIPDDFILGAAASAWQTEGWSGKKPGQDSWPDLWYKNDRHVWHNGYGPAVATDFINRFQEDVQLMKLAGLTHYRTSINWSRFLTDYENVTVDEEYAAYYDQLFDALLANGITPMICLEHYELPGYLLEKYGGWGSKTVVELFVRYAEKVFARYHPKVTRWFTFNEPIVVQTRVYLDALRWPYEQNTSTWMQWNYHKVLATASVVKRFRELGYPGTIGCILNPEVTYPRSRAPHDLRAAEIYDLFYNRMFLDPLVHGVWPPELLALLEQHQVTWETSEEDLAVIREHTVDELGINLYYPHRVKAPSRAWHPHTPFHPAWYYEPFELPGRRMNASRGWEIYPQIIFDMAMRIKNDYRNIPWFVAESGMGVENEGQFRNREGVIDDSYRIRFISEHLWHTLRAREAGANCQGYMLWAFTDNVSPMNAFKNRYGLIEIDLQNHRARRAKASAHWFRQLGERRELVLDEGHHHHHH, MSLTYEKIKQLRENREITQKEISNALDINVSVYNKIELGIRPLREEELTAIADFFNVSIDYLTGRTDNPTTPSNNQKEAGQNIISHFRLNTNDLSSDDIEELEKELIDFQEFLIKRAKERKEGGSHHHHHH, MSLTYLIKVLELFSGVGSFSISLNTLGIEHEIVGFSETRKTATQLFCKLHNKKESENLGDVRNVSAKDLDVDLLVFGSPCQSFTRAGKQGGGLKGSDTRSALMWEAVRIMEECKPKWIVWENVPDAISRKNMPNFQNYMDELDSLNYNTYYKVLNAHELGSAQKRKRLFSISIRKDIDNGKFEFLDLTREPKHLETYLENNDEGHHHHHH, MSLVALTEDTQANANIGRLTVQTVEIADETTAIRCLDWDRERFDIEFGLRNGTTYNSFLIKGEKIALVDTSHRKFEKLYLEIVAGLIDPNTIDYLIVSHTEPDHSGLVKDILQLAPNITIVGAKVAIQFLENMVHQPFKSLQVKSGERLDLGNGHSLEFVSAPNLHWPDTILTYDHKTGILYTCDVFGMHYCDDQTYDENFFAIEEDFKYYYDCLMGPNARSVLAALKRIENLAIKTVATGHGPLLQVHISEWLGRYKNWSLEQAKTETLVALFYAEDYGYSEHLVHILGHGCTKTGVAVELIDLNTAEPQEVRELVTQASGLVIAMPSQYSLTAQAALNTILAAVHHKQAIGLLESGGGEDEPVFPLRNKFQELGLVEAFPPILIKEAPAQTTEQLCEEAGTDIGQWLTRDRTIKQIKSINTDLEKALGRISTGLYIITTKKGEIQGAMFASWVTQASLNPLGVAIAVSKERAIESLMQVGDHFVLNVLEEDNYQGLMKHFLKRFAPGADRFAGIKTYPATDGSPILAESLAYTECEITSRMDCGDHWIIYSTVHVGRVANVHAMTAVHHRKVGNHYEGHHHHHH, MSLVESLADLEEEKKKNILSSGNGEIDKRLGGGIPLGSLTLIEGENDTGKSVLCQQFVYGGLMSGHNIAYYTTENTIKSFLRQMESLSLDVSDFYAWGYLRVFPVHLEGIDWSTEQMRSILNLVANHIKTIRENIAIIDSLTMFTTYSTEDDVLEFLTRLKNLCDNGKTILITLHQHAFKEDTLVRIRSACDCHLFLRKEQVGDRYVSVLEVSKIRGARKTTGNIVSFEVHPGFGLKIIPVSEARAEGHHHHHH, MSLVKIKIFVNELLTDVEENTTAYKVRDSYNNKCDVLVLNGYPIKTDMTLCENDKLTLIQKGVKPSLDELESLLIARHTPNIHNKLKKGKVAILGLGGLGSNIAISLARIGVGELLLIDYDVVEPSNLNRQQYFIDDIGKLKTDAMIENIKKINPFIKLNKRDIFLNKNNMDTIKDSDLIIEAFDDASCKAQVCNYVLINLKDKYLIASSGMAGYYDSNIITTKKIKDRFYICGDFVNEAKFGEGLMAPRVAICANHMANLATQILIDMEGHHHHHH, MSLVNTIGFDREKYIEMQSQHIRERREALGGKLYLEMGGKLFDDMHASRVLPGFTPDNKIAMLDRIKDEVEILVCINAKDLERHKIRADLGISYEEDVLRLVDVFRDRGFLVEHVVLTQLENDNRLALAFIERLQRLGIKVSRHRVIPGYPTDMDRIVSDEGFGLNEYAETTRDLVVVTAPGPGSGKLATCLSQVYHEHKRGVAAGYAKFETFPIWNLPLEHPVNLAYEAATVDLNDANVIDHFHLAAYGEQTVNYNRDVEAFPLLKTLLERLMGESPYQSPTDMGVNMAGNCISDDAACRHASEQEIIRRYFKALVEEARTGKDSTQSDRAAVVMAKAGIKASQRVVVEPARQVEERTSLPGCAIELVDGSIITGATSDLLGCSSSMLLNALKHLAGIDDAIHLLSPESIEPIQTLKTVHLGSSNPRLHTDEVLIALSVSAATDSNAQKALDQLKNLRGCDVHTTTILGSVDEGIFRNLGVLVTSDPKFQKNKLYQKREGHHHHHH
